Assay [1] has as its target rHuman HGF R/c-MET/Fc Chimera, CF (R&D Systems Cat#358-MT/CF) (human) (UniProt P08581). As to the kind of experiment: MSD ECL multi-spot plate, antigen immobilized; Fab 120 nM; blank spot 6749.
Assay [2] deals with Recombinant Human DLL4 (R&D Systems Cat#1506-D4/CF) (human) (UniProt Q9NR61). The assay is described as above.
The target in assay [3] is rHuman Notch-1/Fc Chimera, CF (R&D Systems Cat#3647-TK) (human) (UniProt P46531). The description is as above.
Assay [4] deals with rHuman HGF R/c-MET/Fc Chimera, CF (R&D Systems Cat#358-MT/CF) (human) (UniProt P08581). In words: ECL (MSD multi-spot) screen, antigen spotted on plate, Fab at 0.12 uM; blank spot 2225.
Assay [5] deals with rHuman ErbB2/Fc Chimera, CF (R&D Systems Cat#1129-ER) (human) (UniProt P04626). The description is as above.
Assay [6] addresses Recombinant Human DLL4 (R&D Systems Cat#1506-D4/CF) (human) (UniProt Q9NR61). Described as above.
Assay [7] concerns the target rHuman Notch-1/Fc Chimera, CF (R&D Systems Cat#3647-TK) (human) (UniProt P46531). The description is as above.
Assay [8] concerns the target rHuman HGF R/c-MET/Fc Chimera, CF (R&D Systems Cat#358-MT/CF) (human) (UniProt P08581). In words: MSD ECL multi-spot plate, antigen immobilized; Fab 1.2 nM; blank spot 227.
In assay [9] the target is Recombinant Human DLL4 (R&D Systems Cat#1506-D4/CF) (human) (UniProt Q9NR61). The assay is described as above.
In assay [10] the target is rHuman Notch-1/Fc Chimera, CF (R&D Systems Cat#3647-TK) (human) (UniProt P46531). The description is as above.
The target in assay [11] is rHuman HGF R/c-MET/Fc Chimera, CF (R&D Systems Cat#358-MT/CF) (human) (UniProt P08581). As to the kind of experiment: MSD ECL multi-spot plate, antigen immobilized; Fab 0.12 nM; blank spot 264.
Assay [12] concerns the target Recombinant Human DLL4 (R&D Systems Cat#1506-D4/CF) (human) (UniProt Q9NR61). The assay is described as above.
Assay [13] deals with rHuman Notch-1/Fc Chimera, CF (R&D Systems Cat#3647-TK) (human) (UniProt P46531). Described as above.
Assay [14] concerns the target rHuman HGF R/c-MET/Fc Chimera, CF (R&D Systems Cat#358-MT/CF) (human) (UniProt P08581). As to the kind of experiment: MSD ECL multi-spot plate, antigen immobilized; Fab 12 nM; blank spot 573.
Assay [15] deals with Recombinant Human DLL4 (R&D Systems Cat#1506-D4/CF) (human) (UniProt Q9NR61). The assay is described as above.
The target of assay [16] is rHuman Notch-1/Fc Chimera, CF (R&D Systems Cat#3647-TK) (human) (UniProt P46531). The description is as above.
Assay [17] has as its target rHuman HGF R/c-MET/Fc Chimera, CF (R&D Systems Cat#358-MT/CF) (human) (UniProt P08581). As to the kind of experiment: ECL (MSD multi-spot) screen, antigen spotted on plate, Fab at 0.21 uM; blank spot 489.
Assay [18] addresses rHuman ErbB2/Fc Chimera, CF (R&D Systems Cat#1129-ER) (human) (UniProt P04626). The assay is described as above.
In assay [19] the target is rHuman IGF-1 sR, CF (R&D Systems Cat#391-GR) (human) (UniProt P08069). The description is as above.
The target of assay [20] is rHuman EGF R/Fc Chimera, CF (R&D Systems Cat#344-ER) (human) (UniProt P00533). The description is as above.
Assay [21] deals with rHuman HGF R/c-MET/Fc Chimera, CF (R&D Systems Cat#358-MT/CF) (human) (UniProt P08581). As to the kind of experiment: ECL (MSD multi-spot), Fab 210 nM; blank 833.
Assay [22] deals with rHuman ErbB2/Fc Chimera, CF (R&D Systems Cat#1129-ER) (human) (UniProt P04626). In words: ECL (MSD multi-spot), Fab 210 nM; blank 833.
For assay [23], the target named is rHuman IGF-1 sR (IGF-1 sR), CF (R&D Systems Cat#391-GR) (human) (UniProt P08069). As to the kind of experiment: ECL (MSD multi-spot), Fab 210 nM; blank 833.
The target of assay [24] is rHuman Erythropoietin R/Fc Chimera, CF (R&D Systems Cat#963-ER) (human) (UniProt P19235). As to the kind of experiment: ECL (MSD multi-spot), Fab 210 nM; blank 833.
Chain of rHuman Erythropoietin R/Fc Chimera, CF (R&D Systems Cat#963-ER) (human) (P19235 25-250, change not shown): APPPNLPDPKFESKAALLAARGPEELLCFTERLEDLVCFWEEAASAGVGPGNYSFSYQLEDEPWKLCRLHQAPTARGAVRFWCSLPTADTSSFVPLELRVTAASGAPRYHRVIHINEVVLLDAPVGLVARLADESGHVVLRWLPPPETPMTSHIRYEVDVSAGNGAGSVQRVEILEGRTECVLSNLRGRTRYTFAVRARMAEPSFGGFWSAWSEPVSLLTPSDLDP
Assay [25] deals with rHuman Notch-1/Fc Chimera, CF (R&D Systems Cat#3647-TK) (human) (UniProt P46531). In words: ECL (MSD multi-spot), Fab 210 nM; blank 833.
Assay [26] deals with rHuman EGF R/Fc Chimera, CF (R&D Systems Cat#344-ER) (human) (UniProt P00533). In words: ECL (MSD multi-spot), Fab 210 nM; blank 833.
Assay [27] concerns the target rHuman HGF R/c-MET/Fc Chimera, CF (R&D Systems Cat#358-MT/CF) (human) (UniProt P08581). As to the kind of experiment: ECL (MSD multi-spot), Fab […]; blank 376.
For assay [28], the target named is rHuman ErbB2/Fc Chimera, CF (R&D Systems Cat#1129-ER) (human) (UniProt P04626). In words: ECL (MSD multi-spot), Fab […]; blank 376.
The target of assay [29] is rHuman IGF-1 sR (IGF-1 sR), CF (R&D Systems Cat#391-GR) (human) (UniProt P08069). As to the kind of experiment: ECL (MSD multi-spot), Fab […]; blank 376.
The target of assay [30] is rHuman Erythropoietin R/Fc Chimera, CF (R&D Systems Cat#963-ER) (human) (UniProt P19235). In words: ECL (MSD multi-spot), Fab […]; blank 376.
Assay [31] deals with rHuman Notch-1/Fc Chimera, CF (R&D Systems Cat#3647-TK) (human) (UniProt P46531). In words: ECL (MSD multi-spot), Fab […]; blank 376.
Assay [32] deals with rHuman EGF R/Fc Chimera, CF (R&D Systems Cat#344-ER) (human) (UniProt P00533). In words: ECL (MSD multi-spot), Fab […]; blank 376.
Assay [33] concerns the target rHuman HGF R/c-MET/Fc Chimera, CF (R&D Systems Cat#358-MT/CF) (human) (UniProt P08581). In words: ECL (MSD multi-spot), Fab 3.3 nM; blank 359.
In assay [34] the target is rHuman ErbB2/Fc Chimera, CF (R&D Systems Cat#1129-ER) (human) (UniProt P04626). As to the kind of experiment: ECL (MSD multi-spot), Fab 3.3 nM; blank 359.
Assay [35] deals with rHuman IGF-1 sR (IGF-1 sR), CF (R&D Systems Cat#391-GR) (human) (UniProt P08069). In words: ECL (MSD multi-spot), Fab 3.3 nM; blank 359.
Assay [36] concerns the target rHuman Erythropoietin R/Fc Chimera, CF (R&D Systems Cat#963-ER) (human) (UniProt P19235). As to the kind of experiment: ECL (MSD multi-spot), Fab 3.3 nM; blank 359.
Assay [37] deals with rHuman Notch-1/Fc Chimera, CF (R&D Systems Cat#3647-TK) (human) (UniProt P46531). In words: ECL (MSD multi-spot), Fab 3.3 nM; blank 359.
The target of assay [38] is rHuman EGF R/Fc Chimera, CF (R&D Systems Cat#344-ER) (human) (UniProt P00533). As to the kind of experiment: ECL (MSD multi-spot), Fab 3.3 nM; blank 359.
In assay [39] the target is rHuman HGF R/c-MET/Fc Chimera, CF (R&D Systems Cat#358-MT/CF) (human) (UniProt P08581). In words: ECL (MSD multi-spot), Fab 52.5 nM; blank 467.
Assay [40] deals with rHuman ErbB2/Fc Chimera, CF (R&D Systems Cat#1129-ER) (human) (UniProt P04626). In words: ECL (MSD multi-spot), Fab 52.5 nM; blank 467.
The target in assay [41] is rHuman IGF-1 sR (IGF-1 sR), CF (R&D Systems Cat#391-GR) (human) (UniProt P08069). As to the kind of experiment: ECL (MSD multi-spot), Fab 52.5 nM; blank 467.
Assay [42] addresses rHuman Erythropoietin R/Fc Chimera, CF (R&D Systems Cat#963-ER) (human) (UniProt P19235). As to the kind of experiment: ECL (MSD multi-spot), Fab 52.5 nM; blank 467.
The target in assay [43] is rHuman Notch-1/Fc Chimera, CF (R&D Systems Cat#3647-TK) (human) (UniProt P46531). As to the kind of experiment: ECL (MSD multi-spot), Fab 52.5 nM; blank 467.
Assay [44] has as its target rHuman EGF R/Fc Chimera, CF (R&D Systems Cat#344-ER) (human) (UniProt P00533). In words: ECL (MSD multi-spot), Fab 52.5 nM; blank 467.

As for “Fab VH3-23_IGHD3-10*01>3_IGHJ6*01 & O12_IGKJ1*01”, the ECL signal in [1] stood at 15900 ECL signal; in assay [2], 20600 ECL signal; in assay [3], 14400 ECL signal; in [4], 5470; in [5], 4580; in assay [6] it was 6650. The ECL signal was 5500 in [7]; 412 ECL signal in assay [8]; 319 ECL signal in assay [9]; 660 ECL signal in [10]; 287 ECL signal in assay [11]; 210 ECL signal in assay [12]. For the same substance, the ECL signal came to 218 ECL signal in assay [13], 2700 ECL signal in [14], 2510 ECL signal in assay [15] and 2580 ECL signal in assay [16].
Consider “Fab VH4-31_IGHD2-15*01_IGHJ2*01 & V1-4_IGLJ4*01”, for which the ECL signal in [17] was determined as 1530; in assay [18], 1310; in [19], 1560; in [20] it was 1300; in [21] it was 2060 ECL signal; in assay [22], 1980 ECL signal. In addition, the ECL signal in assay [23] worked out at 1430 ECL signal; in assay [24] it was 2120 ECL signal; in assay [25], 1970 ECL signal; in assay [26] it was 1620 ECL signal; in [27] it was 981 ECL signal; in assay [28], 930 ECL signal. Besides, the ECL signal in assay [29] amounted to 814 ECL signal; in [30] it was 776 ECL signal; in [31] it was 669 ECL signal; in assay [32], 824 ECL signal; in assay [33] it was 849 ECL signal; in [34] it was 1030 ECL signal. Besides, the ECL signal in assay [35] turned out to be 743 ECL signal; in assay [36] it was 695 ECL signal; in assay [37] it was 726 ECL signal; in [38] it was 847 ECL signal; in assay [39] it was 1290 ECL signal; in [40], 1510 ECL signal. The ECL signal in assay [41] worked out at 911 ECL signal; in [42] it was 1320 ECL signal; in assay [43] it was 1320 ECL signal; in assay [44], 1110 ECL signal.
